Patent US12630850B2, “Enzymatic break down of chlorogenic acid in sunflower-containing products” (Chapman University, priority 2022, dated 2026)

Columns and labels:
Assay type in all cases: biochemical
[1] = CGA esterase activity in the sunflower meal supernatant and pellet (HPLC); conditions: for Pellet mg CA/g meal / Pellet mg CGA/g meal / Supernatant mg CA/g meal / Supernatant mg CGA/g meal: enzyme present
Description: (§1) Sunflower meal and sunflower protein treatment with chlorogenic acid esterase. Sunflower seeds were ground using a KitchenAid coffee grinder in two 30 s increments and sieved through a 500 μm filter to make SFM. Two defatting methods were used: cold press and hexane extraction. To make cold pressed SFM, ground seeds were pressed in a Carver Hydraulic Unit Model 3912 3852-0 five times to a pressure of 9,000-10,000 psi. For hexane extracted SFM, fat was removed from ground seeds using a Soxhlet apparatus in 250 mL hexane for 18 h and subsequently dried using a Fischer Scientific Isotemp Oven Model 516G at 45° C. for 3 h. Cold pressed, hexane extracted, and undefatted SFM were then sieved through a 500 μm filter.
Chlorogenic acid esterase activity in the sunflower meal supernatant and pellet. SFM (1 g) that was cold pressed, hexane extracted, or undefatted was buffered in 10 mL of 50 mM HEPES, pH 8.0. CGA esterase was added to a final concentration of 0.756 μM (0.02 mg mL^−1). Untreated samples received a solution of 50 mM HEPES, pH 8.0 instead of CGA esterase. Samples treated with CGA esterase were allowed to sit for 10 min and subsequently centrifuged at 10,000 rpm for 10 min. The supernatant was filtered through a 0.2 μm filter and loaded onto an HPLC while the pellet was lyophilized for 20 h. After lyophilization, 10 mL of 70% ethanol was then added to the dried pellet for 1 h to extract CGA. The pellet was subsequently centrifuged at 10,000 rpm for 10 min. The supernatant was then filtered through a 0.2 μm filter and loaded onto an HPLC.
(§2) HPLC quantification of CGA and CA in sunflower meal and protein isolates. All solutions were diluted ten-fold in 0.1% formic acid in HPLC-grade water before analysis. Quantification of CGA and CA concentration was performed using an Agilent 1260 series HPLC instrument (Agilent Technologies) equipped with a quaternary pump, an automated sample injector, a diode array detector, and a 4.6 mm×150 mm Luna C18(2) column with a 5 μm particle size and 100 Å pore size (Phenomenex). The injection volume was 20 μL. To elute analytes, mobile phases composed of 0.1% formic acid in HPLC-grade water (A) and 0.1% formic acid in HPLC-grade acetonitrile (B) were used in a linear gradient. The gradient is as follows: 0 to 13% B in 1 min, up to 27% B at 8 min, up to 100% B at 8.5 min, isocratic at 100% B to 9.5 min, 100% B returned to 0% B at 9.6 min with 3 min post-time. The concentrations of CGA and CA were calculated from peak integration data based on 10-point standard curve that spanned a concentration range of 0 to 0.1 mg mL^−1.

[2] = CGA esterase kinetics in sunflower meal
Protocol: Chlorogenic acid esterase kinetics in sunflower meal. To determine the Michaelis-Menten parameters of CGA esterase in undefatted SFM, SFM suspensions were made at following concentrations: 1.0 mg mL^−1, 2.5 mg mL^−1, 10.0 mg mL^−1, 30.0 mg mL^−1, and 100.0 mg mL^−1. All samples were made to a final volume of 10 mL in a solution containing 50 mM HEPES, pH 8.0. Treated samples contained a final enzyme concentration of 10 nM. Reactions were stopped by acidifying the solution by adding 120 μL of 37% HCl at regular intervals for 600 s. Samples were subsequently centrifuged at 10,000 rpm for 10 min. […] The supernatant was then filtered using a 0.2 μm filter and loaded onto an HPLC, as described above. The initial amount of CGA that was present prior to adding enzyme was measured using HPLC.
as §2

[3] = CGA and CA content of sunflower protein isolates (HPLC); conditions: enzyme present
Description: as §1
To make SPI, 12.5 g of cold pressed, hexane extracted, and undefatted SFM were buffered in 50 mM HEPES at pH 8.0. Samples were continuously stirred for about 10 min until all SFM was completely suspended. Then, 0.2 mg of CGA esterase per g of SFM was added. The final volume for all reactions was 125 mL. In untreated samples, a buffered solution of 50 mM HEPES, pH 8.0 was added instead of the enzyme solution. After 10 min, 0.1 M NaOH was added to each solution until pH reached 9.00±0.03. Samples were left to sit for 30 min and then centrifuged at 5,000 rpm for 20 min at 4° C. The supernatant was placed back into a 250 mL beaker and pH was lowered using 0.1 M HCl to reach an isoelectric pH of 5.00±0.03. Samples were allowed to precipitate at 4° C. overnight (14-16 h). The supernatant was discarded, and the precipitate was lyophilized for 20 h. All experiments (controls and CGA esterase treated samples) were duplicated.
as §2

[4] = SFM supernatant, pH 8.0, 20° C.

B1: CGA esterase: CGA esterase from L. helveticus (Genbank ID: WP_025283955.1, Uniprot ID: U6F2K7), expressed in Escherichia coli; the dimer is the active form (protein, listed as Lactobacillus helveticus)
chain: MSRITIERDGLTLVGDREEPFGEIYDMAIIMHGFAANRNTDLLRQIADDLRDENVASVRFDFNGHGESDGKFEDMTVCNEIADGKAILDYVRTDPHVRDIFLVGHSQGGVVASMLAGLYPDVVKKVVLLAPAAQLKDDALRSNTQGATYDPNHIPDWPLVGNKLGMKLGGFYLRTAQVLPIYEVSQCFTRPVSVIAGTNDQWDPKYAKKYDEVYENSELHMIPNADHRFSGGYKDMAADLTAQFLKPAF
**Q.** For B1, which “Conversion of CGA into caffeic and quinic acid” value ([1]; SFM, in 10 min) is on record?
**A.** Its value is about 100%.

**Q.** And the “Pellet mg CA/g meal” value ([1]; cold pressed SFM)?
**A.** The value was 0.81 ± 0.11 mg CA/g meal.

**Q.** And the “Pellet mg CGA/g meal” value ([1]; cold pressed SFM)?
**A.** Its value is 0.02 ± 0.00 mg CGA/g meal.

**Q.** And the “Supernatant mg CA/g meal” value ([1]; cold pressed SFM)?
**A.** Its value is 3.33 ± 0.15 mg CA/g meal.

**Q.** What about the “Supernatant mg CGA/g meal” value ([1]; cold pressed SFM) of the same molecule?
**A.** The value was 0.00 ± 0.00 mg CGA/g meal.

**Q.** And the CGA cleavage ([1]; defatted samples)?
**A.** Its CGA cleavage is over 99%.

**Q.** What about the “Pellet mg CA/g meal” value ([1]; hexane extracted SFM) of the same molecule?
**A.** Its value is 1.55 ± 0.14 mg CA/g meal.

**Q.** And the “Pellet mg CGA/g meal” value ([1]; hexane extracted SFM)?
**A.** Its value is 0.03 ± 0.00 mg CGA/g meal.

**Q.** What about the “Supernatant mg CA/g meal” value ([1]; hexane extracted SFM) of the same molecule?
**A.** Its value is 3.77 ± 0.10 mg CA/g meal.

**Q.** What about the “Supernatant mg CGA/g meal” value ([1]; hexane extracted SFM) of the same molecule?
**A.** The value was 0.00 ± 0.00 mg CGA/g meal.

**Q.** And the “Pellet mg CA/g meal” value ([1]; undefatted SFM)?
**A.** Its value is 0.34 ± 0.03 mg CA/g meal.

**Q.** What about the “Pellet mg CGA/g meal” value ([1]; undefatted SFM) of the same molecule?
**A.** The value was 0.11 ± 0.01 mg CGA/g meal.

**Q.** What about the “Supernatant mg CA/g meal” value ([1]; undefatted SFM) of the same molecule?
**A.** The value was 1.52 ± 0.08 mg CA/g meal.

**Q.** And the “Supernatant mg CGA/g meal” value ([1]; undefatted SFM)?
**A.** The value was 0.00 ± 0.00 mg CGA/g meal.

**Q.** What about the CGA cleavage ([1]; undefatted samples) of the same molecule?
**A.** The CGA cleavage was “ca. 96%”.

**Q.** What about the “Km in SFM lower than in buffered solution” value [2] of the same molecule?
**A.** Its value is 4.5 fold.

**Q.** What about the “Meal concentration at which maximal CGA hydrolysis activity is achieved” value [2] of the same molecule?
**A.** Its value is “approximately 100 mg mL^−1”.

**Q.** And the “Vmax in SFM lower than in buffered solution” value [2]?
**A.** The value was 60 fold.

**Q.** And the Km [2, 4]?
**A.** Its Km is 20 µM.

**Q.** And the Vmax [2, 4]?
**A.** Its Vmax is 2.716 mM/min/mg.

**Q.** And the “mg CA/g protein” value ([3]; SPI from cold pressed SFM)?
**A.** The value was 3.62 ± 0.05 mg CA/g protein.

**Q.** And the “mg CGA/g protein” value ([3]; SPI from cold pressed SFM)?
**A.** Its value is 0.00 ± 0.00 mg CGA/g protein.

**Q.** And the “mg CA/g protein” value ([3]; SPI from hexane extracted SFM)?
**A.** Its value is 3.38 ± 0.25 mg CA/g protein.

**Q.** And the “mg CGA/g protein” value ([3]; SPI from hexane extracted SFM)?
**A.** Its value is 0.00 ± 0.00 mg CGA/g protein.

**Q.** What about the “mg CA/g protein” value ([3]; SPI from undefatted SFM) of the same molecule?
**A.** The value was 1.11 ± 0.38 mg CA/g protein.

**Q.** And the “mg CGA/g protein” value ([3]; SPI from undefatted SFM)?
**A.** Its value is 0.00 ± 0.00 mg CGA/g protein.
